The values below come from PMC7910558, “The HIF-1α antisense long non-coding RNA drives a positive feedback loop of HIF-1α mediated transactivation and glycolysis”.

In one data set the target is PHD3 (EMSA) (UniProt Q9H6Z9 1-239). The data set can be described thus: EMSA; Pull-down: RNA folded in 10 mM Tris pH 7, 0.1 M KCl, 10 mM MgCl2, then 5 µg RNA with 5 mg lysate in Pierce IP lysis buffer, 1 h, room temperature; EMSA: LightShift chemiluminescent RNA EMSA kit, buffer not given. The settings on record: protein: recombinant, label: biotin-16-UTP. Background: In EMSA bound probe runs differently from free probe, usually more slowly.
Sequence of PHD3 (EMSA) (Q9H6Z9 whole entry): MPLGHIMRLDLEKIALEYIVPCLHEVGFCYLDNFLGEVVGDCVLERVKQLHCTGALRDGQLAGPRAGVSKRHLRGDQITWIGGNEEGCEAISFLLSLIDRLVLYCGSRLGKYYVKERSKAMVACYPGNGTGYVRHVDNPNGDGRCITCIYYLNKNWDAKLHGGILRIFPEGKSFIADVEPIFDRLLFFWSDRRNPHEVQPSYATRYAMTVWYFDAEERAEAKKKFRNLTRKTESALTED

The target in a further data set is PKM2 (EMSA) (UniProt P14618 1-531). The data set is described as above. Particulars: protein: recombinant; label: biotin-16-UTP; two predicted hairpins (nt 4-19, nt 30-57).
Sequence of PKM2 (EMSA) (P14618 whole entry): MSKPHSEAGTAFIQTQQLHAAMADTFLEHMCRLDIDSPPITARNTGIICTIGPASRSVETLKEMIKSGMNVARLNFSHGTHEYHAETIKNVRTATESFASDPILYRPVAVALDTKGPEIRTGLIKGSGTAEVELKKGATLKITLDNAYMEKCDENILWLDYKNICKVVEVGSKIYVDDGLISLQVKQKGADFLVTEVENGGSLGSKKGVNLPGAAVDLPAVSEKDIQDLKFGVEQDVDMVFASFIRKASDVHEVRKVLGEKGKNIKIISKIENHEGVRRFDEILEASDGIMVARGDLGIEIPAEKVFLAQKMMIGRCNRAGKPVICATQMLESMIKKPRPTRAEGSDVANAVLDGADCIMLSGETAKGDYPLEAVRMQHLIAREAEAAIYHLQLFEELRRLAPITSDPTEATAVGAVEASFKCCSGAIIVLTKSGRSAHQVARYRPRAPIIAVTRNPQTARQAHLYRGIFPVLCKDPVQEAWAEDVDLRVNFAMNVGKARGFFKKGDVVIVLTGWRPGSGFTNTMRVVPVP

B1: HIFAL nt 501-560 (structured_RNA)
RNA: UGCAUGGUGCUUACUAAUAACACAGUGGUAUUCUAAACAUUUUUCACCUAUUAUUUAAUC
Regarding B1, in the data set with PHD3 (EMSA) (predicted hairpin (nt 506-532)), the binding result is recorded as “binds”.

B2: HIFAL nt 1-60 (structured_RNA)
RNA: UCAUGUAGCGCCAGCCACACCAGGAACAGAAGGGUGCCGGGUACCUUCCGCAUGCUUGGU
In the case of B2, the binding result in the data set with PKM2 (EMSA) is “binds”. For UGCAUGUCUAAACAUUUUUCACCUAUUAUUUAAUC (ssRNA) [HIFAL 501-560 ΔhC (mC)], the binding result with PHD3 (EMSA) was “no binding”.
